# US20250188184A1
# Target: CD3 (target of the Pool 1 CD3.23 screen)
# Assay: Octet, crude lysate
# CD3 (target of the Pool 1 CD3.23 screen), sequence (P07766 23-126): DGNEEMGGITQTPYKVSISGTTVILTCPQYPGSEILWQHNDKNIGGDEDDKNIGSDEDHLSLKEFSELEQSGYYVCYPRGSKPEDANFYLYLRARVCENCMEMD
row,Binder,Kd
1,"CD3.75 (AC3404) (bispecific antibody, V domains shown) VH: EVQLLESGGGIVQPGGSLKLSCAASGFTFNTYAMNWVRQAPGKGLEWVARIRSKWNNYATYYADSVKDRFTISRDDSKNTVYLQMNNLKTEDTAVYYCVRHENFGNSYVSWFAHWGQGTLVTVSS VL: ELVVTQEPSLTVSPGGTVTLTCRSSNGAVTSSNYANWVQQKPGQAPRGLIGGTNKRAPGTPARFSGSLLGGKAALTLSGVQPEDEAVYYCALWYPNLWVFGGGTKLTVL",10.5 nM
2,"CD3.77 (AC3406) (bispecific antibody, V domains shown) VH: EVQLLESGGGIVQPGGSLKLSCAASGFTFNTYAMNWVRQAPGKGLEWVARIRSKYENYATYYADSVKDRFTISRDDSKNTVYLQMNNLKTEDTAVYYCVRHENFGNSYVSWFAHWGQGTLVTVSS VL: ELVVTQEPSLTVSPGGTVTLTCRSSNGAVTSSNYANWVQQKPGQAPRGLIGGTNKRAPGTPARFSGSLLGGKAALTLSGVQPEDEAVYYCALWYPNLWVFGGGTKLTVL",575 nM
3,"CD3.88 (AC3417) (bispecific antibody, V domains shown) VH: EVQLLESGGGIVQPGGSLKLSCAASGFTFNTYAMNWVRQAPGKGLEWVARIRSKYNNYATYDADSVKDRFTISRDDSKNTVYLQMNNLKTEDTAVYYCVRHENFGNSYVSWFAHWGQGTLVTVSS VL: ELVVTQEPSLTVSPGGTVTLTCRSSNGAVTSSNYANWVQQKPGQAPRGLIGGTNKRAPGTPARFSGSLLGGKAALTLSGVQPEDEAVYYCALWYPNLWVFGGGTKLTVL",63.2 nM
4,"CD3.84 (AC3413) (bispecific antibody, V domains shown) VH: EVQLLESGGGIVQPGGSLKLSCAASGFTFNTYAMNWVRQAPGKGLEWVARIRSKYNNYTTYYADSVKDRFTISRDDSKNTVYLQMNNLKTEDTAVYYCVRHENFGNSYVSWFAHWGQGTLVTVSS VL: ELVVTQEPSLTVSPGGTVTLTCRSSNGAVTSSNYANWVQQKPGQAPRGLIGGTNKRAPGTPARFSGSLLGGKAALTLSGVQPEDEAVYYCALWYPNLWVFGGGTKLTVL",10.7 nM
5,"CD3.87 (AC3416) (bispecific antibody, V domains shown) VH: EVQLLESGGGIVQPGGSLKLSCAASGFTFNTYAMNWVRQAPGKGLEWVARIRSKYNNYATTYADSVKDRFTISRDDSKNTVYLQMNNLKTEDTAVYYCVRHENFGNSYVSWFAHWGQGTLVTVSS VL: ELVVTQEPSLTVSPGGTVTLTCRSSNGAVTSSNYANWVQQKPGQAPRGLIGGTNKRAPGTPARFSGSLLGGKAALTLSGVQPEDEAVYYCALWYPNLWVFGGGTKLTVL",17.9 nM
6,"CD3.97 (AC3426) (bispecific antibody, V domains shown) VH: EVQLLESGGGIVQPGGSLKLSCAASGFTFNTYAMNWVRQAPGKGLEWVARIRSKYNNYATYYADSVKDRFTISRDDSKNTVGLQMNNLKTEDTAVYYCVRHENFGNSYVSWFAHWGQGTLVTVSS VL: ELVVTQEPSLTVSPGGTVTLTCRSSNGAVTSSNYANWVQQKPGQAPRGLIGGTNKRAPGTPARFSGSLLGGKAALTLSGVQPEDEAVYYCALWYPNLWVFGGGTKLTVL",121 nM
7,"CD3.86 (AC3415) (bispecific antibody, V domains shown) VH: EVQLLESGGGIVQPGGSLKLSCAASGFTFNTYAMNWVRQAPGKGLEWVARIRSKYNNYATEYADSVKDRFTISRDDSKNTVYLQMNNLKTEDTAVYYCVRHENFGNSYVSWFAHWGQGTLVTVSS VL: ELVVTQEPSLTVSPGGTVTLTCRSSNGAVTSSNYANWVQQKPGQAPRGLIGGTNKRAPGTPARFSGSLLGGKAALTLSGVQPEDEAVYYCALWYPNLWVFGGGTKLTVL",183 nM
8,"CD3.80 (AC3409) (bispecific antibody, V domains shown) VH: EVQLLESGGGIVQPGGSLKLSCAASGFTFNTYAMNWVRQAPGKGLEWVARIRSKYNNGATYYADSVKDRFTISRDDSKNTVYLQMNNLKTEDTAVYYCVRHENFGNSYVSWFAHWGQGTLVTVSS VL: ELVVTQEPSLTVSPGGTVTLTCRSSNGAVTSSNYANWVQQKPGQAPRGLIGGTNKRAPGTPARFSGSLLGGKAALTLSGVQPEDEAVYYCALWYPNLWVFGGGTKLTVL",11.3 nM
9,"CD3.96 (AC3425) (bispecific antibody, V domains shown) VH: EVQLLESGGGIVQPGGSLKLSCAASGFTFNTYAMNWVRQAPGKGLEWVARIRSKYNNYATYYADSVKDRFTISRDDSKNTVDLQMNNLKTEDTAVYYCVRHENFGNSYVSWFAHWGQGTLVTVSS VL: ELVVTQEPSLTVSPGGTVTLTCRSSNGAVTSSNYANWVQQKPGQAPRGLIGGTNKRAPGTPARFSGSLLGGKAALTLSGVQPEDEAVYYCALWYPNLWVFGGGTKLTVL",9.8 nM
10,"CD3.92 (AC3421) (bispecific antibody, V domains shown) VH: EVQLLESGGGIVQPGGSLKLSCAASGFTFNTYAMNWVRQAPGKGLEWVARIRSKYNNYATYWADSVKDRFTISRDDSKNTVYLQMNNLKTEDTAVYYCVRHENFGNSYVSWFAHWGQGTLVTVSS VL: ELVVTQEPSLTVSPGGTVTLTCRSSNGAVTSSNYANWVQQKPGQAPRGLIGGTNKRAPGTPARFSGSLLGGKAALTLSGVQPEDEAVYYCALWYPNLWVFGGGTKLTVL",37.2 nM
11,"CD3.85 (AC3414) (bispecific antibody, V domains shown) VH: EVQLLESGGGIVQPGGSLKLSCAASGFTFNTYAMNWVRQAPGKGLEWVARIRSKYNNYATDYADSVKDRFTISRDDSKNTVYLQMNNLKTEDTAVYYCVRHENFGNSYVSWFAHWGQGTLVTVSS VL: ELVVTQEPSLTVSPGGTVTLTCRSSNGAVTSSNYANWVQQKPGQAPRGLIGGTNKRAPGTPARFSGSLLGGKAALTLSGVQPEDEAVYYCALWYPNLWVFGGGTKLTVL",939 nM

# Continued by falling Kd, values first:
row,Kd,Binder
1,9.7 nM,"CD3.89 (AC3418) (bispecific antibody, V domains shown) VH: EVQLLESGGGIVQPGGSLKLSCAASGFTFNTYAMNWVRQAPGKGLEWVARIRSKYNNYATYEADSVKDRFTISRDDSKNTVYLQMNNLKTEDTAVYYCVRHENFGNSYVSWFAHWGQGTLVTVSS VL: ELVVTQEPSLTVSPGGTVTLTCRSSNGAVTSSNYANWVQQKPGQAPRGLIGGTNKRAPGTPARFSGSLLGGKAALTLSGVQPEDEAVYYCALWYPNLWVFGGGTKLTVL"
2,8.3 nM,"CD3.91 (AC3420) (bispecific antibody, V domains shown) VH: EVQLLESGGGIVQPGGSLKLSCAASGFTFNTYAMNWVRQAPGKGLEWVARIRSKYNNYATYGADSVKDRFTISRDDSKNTVYLQMNNLKTEDTAVYYCVRHENFGNSYVSWFAHWGQGTLVTVSS VL: ELVVTQEPSLTVSPGGTVTLTCRSSNGAVTSSNYANWVQQKPGQAPRGLIGGTNKRAPGTPARFSGSLLGGKAALTLSGVQPEDEAVYYCALWYPNLWVFGGGTKLTVL"
3,8.3 nM,"CD3.79 (AC3408) (bispecific antibody, V domains shown) VH: EVQLLESGGGIVQPGGSLKLSCAASGFTFNTYAMNWVRQAPGKGLEWVARIRSKYNEYATYYADSVKDRFTISRDDSKNTVYLQMNNLKTEDTAVYYCVRHENFGNSYVSWFAHWGQGTLVTVSS VL: ELVVTQEPSLTVSPGGTVTLTCRSSNGAVTSSNYANWVQQKPGQAPRGLIGGTNKRAPGTPARFSGSLLGGKAALTLSGVQPEDEAVYYCALWYPNLWVFGGGTKLTVL"
4,8.2 nM,"CD3.94 (AC3423) (bispecific antibody, V domains shown) VH: EVQLLESGGGIVQPGGSLKLSCAASGFTFNTYAMNWVRQAPGKGLEWVARIRSKYNNYATYYPDSVKDRFTISRDDSKNTVYLQMNNLKTEDTAVYYCVRHENFGNSYVSWFAHWGQGTLVTVSS VL: ELVVTQEPSLTVSPGGTVTLTCRSSNGAVTSSNYANWVQQKPGQAPRGLIGGTNKRAPGTPARFSGSLLGGKAALTLSGVQPEDEAVYYCALWYPNLWVFGGGTKLTVL"
5,8.2 nM,"CD3.83 (AC3412) (bispecific antibody, V domains shown) VH: EVQLLESGGGIVQPGGSLKLSCAASGFTFNTYAMNWVRQAPGKGLEWVARIRSKYNNYGTYYADSVKDRFTISRDDSKNTVYLQMNNLKTEDTAVYYCVRHENFGNSYVSWFAHWGQGTLVTVSS VL: ELVVTQEPSLTVSPGGTVTLTCRSSNGAVTSSNYANWVQQKPGQAPRGLIGGTNKRAPGTPARFSGSLLGGKAALTLSGVQPEDEAVYYCALWYPNLWVFGGGTKLTVL"
6,8 nM,"CD3.93 (AC3422) (bispecific antibody, V domains shown) VH: EVQLLESGGGIVQPGGSLKLSCAASGFTFNTYAMNWVRQAPGKGLEWVARIRSKYNNYATYYKDSVKDRFTISRDDSKNTVYLQMNNLKTEDTAVYYCVRHENFGNSYVSWFAHWGQGTLVTVSS VL: ELVVTQEPSLTVSPGGTVTLTCRSSNGAVTSSNYANWVQQKPGQAPRGLIGGTNKRAPGTPARFSGSLLGGKAALTLSGVQPEDEAVYYCALWYPNLWVFGGGTKLTVL"
7,7.8 nM,"CD3.82 (AC3411) (bispecific antibody, V domains shown) VH: EVQLLESGGGIVQPGGSLKLSCAASGFTFNTYAMNWVRQAPGKGLEWVARIRSKYNNWATYYADSVKDRFTISRDDSKNTVYLQMNNLKTEDTAVYYCVRHENFGNSYVSWFAHWGQGTLVTVSS VL: ELVVTQEPSLTVSPGGTVTLTCRSSNGAVTSSNYANWVQQKPGQAPRGLIGGTNKRAPGTPARFSGSLLGGKAALTLSGVQPEDEAVYYCALWYPNLWVFGGGTKLTVL"
8,7.4 nM,"CD3.78 (AC3407) (bispecific antibody, V domains shown) VH: EVQLLESGGGIVQPGGSLKLSCAASGFTFNTYAMNWVRQAPGKGLEWVARIRSKYNDYATYYADSVKDRFTISRDDSKNTVYLQMNNLKTEDTAVYYCVRHENFGNSYVSWFAHWGQGTLVTVSS VL: ELVVTQEPSLTVSPGGTVTLTCRSSNGAVTSSNYANWVQQKPGQAPRGLIGGTNKRAPGTPARFSGSLLGGKAALTLSGVQPEDEAVYYCALWYPNLWVFGGGTKLTVL"
9,7.2 nM,"CD3.90 (AC3419) (bispecific antibody, V domains shown) VH: EVQLLESGGGIVQPGGSLKLSCAASGFTFNTYAMNWVRQAPGKGLEWVARIRSKYNNYATYQADSVKDRFTISRDDSKNTVYLQMNNLKTEDTAVYYCVRHENFGNSYVSWFAHWGQGTLVTVSS VL: ELVVTQEPSLTVSPGGTVTLTCRSSNGAVTSSNYANWVQQKPGQAPRGLIGGTNKRAPGTPARFSGSLLGGKAALTLSGVQPEDEAVYYCALWYPNLWVFGGGTKLTVL"
10,6.1 nM,"CD3.81 (AC3410) (bispecific antibody, V domains shown) VH: EVQLLESGGGIVQPGGSLKLSCAASGFTFNTYAMNWVRQAPGKGLEWVARIRSKYNNFATYYADSVKDRFTISRDDSKNTVYLQMNNLKTEDTAVYYCVRHENFGNSYVSWFAHWGQGTLVTVSS VL: ELVVTQEPSLTVSPGGTVTLTCRSSNGAVTSSNYANWVQQKPGQAPRGLIGGTNKRAPGTPARFSGSLLGGKAALTLSGVQPEDEAVYYCALWYPNLWVFGGGTKLTVL"
11,5.4 nM,"CD3.95 (AC3424) (bispecific antibody, V domains shown) VH: EVQLLESGGGIVQPGGSLKLSCAASGFTFNTYAMNWVRQAPGKGLEWVARIRSKYNNYATYYADSVKGRFTISRDDSKNTVYLQMNNLKTEDTAVYYCVRHENFGNSYVSWFAHWGQGTLVTVSS VL: ELVVTQEPSLTVSPGGTVTLTCRSSNGAVTSSNYANWVQQKPGQAPRGLIGGTNKRAPGTPARFSGSLLGGKAALTLSGVQPEDEAVYYCALWYPNLWVFGGGTKLTVL"
